Measurements from US20090258001A1.

What was measured:
[1] = target: CD3 (CD3/TCR complex) on CD4+ and CD8+ T cells of patients (human) (UniProt P07766); assay: flow cytometry, free sites by biotinylated TRX4; Example 4, 4-dose cohorts, 24 hours after infusion
[2] = target: CD3 (CD3/TCR complex) on CD4+ and CD8+ T cells of patients (human) (UniProt P07766); assay: flow cytometry of CD4+ T cells, free CD3 sites by biotinylated TRX4; Example 4 Cohort B, 2 hours after last infusion
[3] = target: CD3 (CD3/TCR complex) on CD4+ and CD8+ T cells of patients (human) (UniProt P07766); assay: flow cytometry of patients' CD4+ T cells, anti-human IgG; Example 3 Cohort 1 (0.1 mg x3), end of second infusion
[4] = target: CD3 (CD3/TCR complex) on CD4+ and CD8+ T cells of patients (human) (UniProt P07766); assay: flow cytometry of CD4+ T cells, free CD3 sites by biotinylated TRX4; Example 3 Cohort 2, third 0.5 mg dose
[5] = target: CD3 (CD3/TCR complex) on CD4+ and CD8+ T cells of patients (human) (UniProt P07766); assay: flow cytometry of CD4+ T cells, free CD3 sites by biotinylated TRX4; Example 4 Cohort C, 0.2 mg
[6] = target: CD3 (CD3/TCR complex) on CD4+ and CD8+ T cells of patients (human) (UniProt P07766); assay: flow cytometry of CD4+ T cells, anti-human IgG; Example 4 Cohort C, end of 0.3 mg infusion
[7] = target: CD3 (CD3/TCR complex) on CD4+ and CD8+ T cells of patients (human) (UniProt P07766); assay: flow cytometry of CD4+ T cells, free CD3 sites by biotinylated TRX4; Example 3 Cohort 2, 2 hours after end of infusion
[8] = target: CD3 (CD3/TCR complex) on CD4+ and CD8+ T cells of patients (human) (UniProt P07766); assay: flow cytometry of CD4+ T cells, anti-human IgG; Example 4 Cohort C, 2 hours after 1.0 mg infusion
[9] = target: CD3 (CD3/TCR complex) on CD4+ and CD8+ T cells of patients (human) (UniProt P07766); assay: flow cytometry of CD4+ T cells, free CD3 sites by biotinylated TRX4; Example 4 Cohort B, 0.2 mg
[10] = target: CD3 (CD3/TCR complex) on CD4+ and CD8+ T cells of patients (human) (UniProt P07766); assay: flow cytometry of CD4+ T cells, anti-human IgG; Example 3 Cohort 2 (0.5 mg x3), 2 hours after end of dosing
[11] = target: CD3 (CD3/TCR complex) on CD4+ and CD8+ T cells of patients (human) (UniProt P07766); assay: flow cytometry of CD4+ T cells, anti-human IgG; Example 4 Cohort C, end of 1.0 mg infusion
[12] = target: CD3 (CD3/TCR complex) on CD4+ and CD8+ T cells of patients (human) (UniProt P07766); assay: flow cytometry of CD4+ T cells, free CD3 sites by biotinylated TRX4; Example 4 Cohort C, 2 hours after last infusion
[13] = target: CD3 (CD3/TCR complex) on CD4+ and CD8+ T cells of patients (human) (UniProt P07766); assay: flow cytometry of CD4+ T cells, anti-human IgG; Example 3 Cohort 3, end of 0.3 mg infusion
[14] = target: CD3 (CD3/TCR complex) on CD4+ and CD8+ T cells of patients (human) (UniProt P07766); assay: flow cytometry of CD4+ T cells, free CD3 sites by biotinylated TRX4; Example 3 Cohort 3, 0.1 mg
[15] = target: CD3 (CD3/TCR complex) on CD4+ and CD8+ T cells of patients (human) (UniProt P07766); assay: flow cytometry of CD4+ T cells, anti-human IgG; Example 4 Cohort B, end of 0.75 mg infusion
[16] = target: CD3 (CD3/TCR complex) on CD4+ and CD8+ T cells of patients (human) (UniProt P07766); assay: flow cytometry of CD4+ T cells, free CD3 sites by biotinylated TRX4; Example 3 Cohort 2, first 0.5 mg dose
[17] = target: CD3 (CD3/TCR complex) on CD4+ and CD8+ T cells of patients (human) (UniProt P07766); assay: flow cytometry of CD4+ T cells, anti-human IgG; Example 4 Cohort A, 2 hours after 0.5 mg infusion
[18] = target: CD3 (CD3/TCR complex) on CD4+ and CD8+ T cells of patients (human) (UniProt P07766); assay: flow cytometry of CD4+ T cells, free CD3 sites by biotinylated TRX4; Example 4 Cohort A, 0.1 mg
[19] = target: CD3 (CD3/TCR complex) on CD4+ and CD8+ T cells of patients (human) (UniProt P07766); assay: flow cytometry of CD4+ T cells, free CD3 sites by biotinylated TRX4; Example 3 Cohort 3, 2 hours after 0.5 mg infusion
[20] = target: CD3 (CD3/TCR complex) on CD4+ and CD8+ T cells of patients (human) (UniProt P07766); assay: flow cytometry of CD4+ T cells, free CD3 sites by biotinylated TRX4; Example 4 Cohort A*, 0.05 mg
[21] = target: CD3 (CD3/TCR complex) on CD4+ and CD8+ T cells of patients (human) (UniProt P07766); assay: flow cytometry of CD4+ T cells, free CD3 sites by biotinylated TRX4; Example 4 Cohort A, 0.2 mg
[22] = target: CD3 (CD3/TCR complex) on CD4+ and CD8+ T cells of patients (human) (UniProt P07766); assay: flow cytometry of CD4+ T cells, anti-human IgG; Example 4 Cohort B, end of 0.1 mg infusion
[23] = target: CD3 (CD3/TCR complex) on CD4+ and CD8+ T cells of patients (human) (UniProt P07766); assay: flow cytometry of CD4+ T cells, anti-human IgG; Example 4 Cohort B, about 24 hours after 0.75 mg infusion
[24] = target: CD3 (CD3/TCR complex) on CD4+ and CD8+ T cells of patients (human) (UniProt P07766); assay: flow cytometry of CD4+ T cells, free CD3 sites by biotinylated TRX4; Example 4 Cohort B, 0.3 mg
[25] = target: CD3 (CD3/TCR complex) on CD4+ and CD8+ T cells of patients (human) (UniProt P07766); assay: flow cytometry of CD4+ T cells, anti-human IgG; Example 4 Cohort A*, end of 0.15 mg infusion

Chain of UniProt P07766 (P07766 23-207, chain 1 of 3): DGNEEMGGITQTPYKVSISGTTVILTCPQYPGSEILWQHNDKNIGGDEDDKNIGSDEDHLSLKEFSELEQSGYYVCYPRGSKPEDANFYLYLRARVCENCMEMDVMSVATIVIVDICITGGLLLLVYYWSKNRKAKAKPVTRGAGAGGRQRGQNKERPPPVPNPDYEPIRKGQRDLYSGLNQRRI
Chain of UniProt P07766 (chain, as listed by the source, chain 2 of 3): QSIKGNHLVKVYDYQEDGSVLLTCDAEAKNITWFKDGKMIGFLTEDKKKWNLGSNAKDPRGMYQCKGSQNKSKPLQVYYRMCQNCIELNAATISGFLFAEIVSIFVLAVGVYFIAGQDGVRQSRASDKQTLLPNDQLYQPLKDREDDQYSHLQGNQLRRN
Chain of UniProt P07766 (chain, as listed by the source, chain 3 of 3): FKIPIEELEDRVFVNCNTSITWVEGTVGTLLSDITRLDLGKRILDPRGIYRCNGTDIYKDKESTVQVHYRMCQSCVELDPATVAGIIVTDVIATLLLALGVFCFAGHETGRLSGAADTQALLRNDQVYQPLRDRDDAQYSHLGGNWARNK

TRX4 antibody
percent saturation of CD3 [1]: 40% | percent saturation of CD3 [2]: 70% | cell-bound TRX4 (MESF of anti-human IgG) [3]: 300000 MESF units | percent saturation of CD3 [4]: 95% | percent saturation of CD3 [5]: 95% | cell-bound TRX4 (MESF of anti-human IgG) [6]: 600000 MESF units | percent saturation of CD3 [7]: 55% | cell-bound TRX4 (MESF of anti-human IgG) [8]: 600000 MESF units | percent saturation of CD3 [9]: 60% | cell-bound TRX4 (MESF of anti-human IgG) [10]: 400000 MESF units | cell-bound TRX4 (MESF of anti-human IgG) [11]: 750000 MESF units | percent saturation of CD3 [12]: 50% | cell-bound TRX4 (MESF of anti-human IgG) [13]: 300000 MESF units | percent saturation of CD3 [14]: 45% | cell-bound TRX4 (MESF of anti-human IgG) [15]: 480000 MESF units | percent saturation of CD3 [16]: 90% | cell-bound TRX4 (MESF of anti-human IgG) [17]: 400000 MESF units | percent saturation of CD3 [18]: 40% | percent saturation of CD3 [19]: 45% | percent saturation of CD3 [20]: 50% | percent saturation of CD3 [21]: 70% | cell-bound TRX4 (MESF of anti-human IgG) [22]: 2e+06 MESF units | cell-bound TRX4 (MESF of anti-human IgG) [23]: 200000 MESF units | percent saturation of CD3 [24]: 80% | cell-bound TRX4 (MESF of anti-human IgG) [25]: 800000 MESF units
